According to ChEMBL document CHEMBL1212722, “Designer enzymes for glycosphingolipid synthesis by directed evolution” (Nat Chem Biol, 2009):

Legend:
[1] = substrate: CC(=O)N[C@H]1[C@H](O[C@@H]2[C@H](O[C@]3(C(=O)O)C[C@H](O)[C@@H](NC(C)=O)[C@H]([C@@H](O)[C@@H](O)CO)O3)[C@@H](O)[C@H](O[C@H]3[C@H](O)[C@@H](O)[C@@H](F)O[C@@H]3CO)O[C@@H]2CO)O[C@H](CO)[C@H](O)[C@@H]1O[C@@H]1O[C@H](CO)[C@H](O)[C@H](O)[C@H]1O; assay: (§1) Activity of Rhodococcus sp. M777 Endoglycoceramidase 2 T257I T416A mutant
[2] = substrate: CCCCCCCCCCCCC/C=C/[C@@H](O)[C@@H](N)CO; assay: as §1
[3] = substrate: CC(=O)N[C@H]1[C@H](O[C@@H]2[C@H](O[C@]3(C(=O)O)C[C@H](O)[C@@H](NC(C)=O)[C@H]([C@@H](O)[C@@H](O)CO)O3)[C@@H](O)[C@H](O[C@H]3[C@H](O)[C@@H](O)[C@@H](F)O[C@@H]3CO)O[C@@H]2CO)O[C@H](CO)[C@H](O)[C@@H]1O[C@@H]1O[C@H](CO)[C@H](O)[C@H](O)[C@H]1O; assay: (§2) Ratio of Kcat to Km of Activity of Rhodococcus sp. M777 Endoglycoceramidase 2 T257I T416A mutant
[4] = substrate: CCCCCCCCCCCCC/C=C/[C@@H](O)[C@@H](N)CO; assay: as §2
[5] = substrate: CC(=O)N[C@H]1[C@H](O[C@@H]2[C@H](O[C@]3(C(=O)O)C[C@H](O)[C@@H](NC(C)=O)[C@H]([C@@H](O)[C@@H](O)CO)O3)[C@@H](O)[C@H](O[C@H]3[C@H](O)[C@@H](O)[C@@H](F)O[C@@H]3CO)O[C@@H]2CO)O[C@H](CO)[C@H](O)[C@@H]1O[C@@H]1O[C@H](CO)[C@H](O)[C@H](O)[C@H]1O; assay: (§3) Ratio of Kcat to Km of Activity of Rhodococcus sp. M777 Endoglycoceramidase 2 V269I mutant
[6] = substrate: CCCCCCCCCCCCC/C=C/[C@@H](O)[C@@H](N)CO; assay: as §3
[7] = substrate: CC(=O)N[C@H]1[C@H](O[C@@H]2[C@H](O[C@]3(C(=O)O)C[C@H](O)[C@@H](NC(C)=O)[C@H]([C@@H](O)[C@@H](O)CO)O3)[C@@H](O)[C@H](O[C@H]3[C@H](O)[C@@H](O)[C@@H](F)O[C@@H]3CO)O[C@@H]2CO)O[C@H](CO)[C@H](O)[C@@H]1O[C@@H]1O[C@H](CO)[C@H](O)[C@H](O)[C@H]1O; assay: (§4) Activity of Rhodococcus sp. M777 Endoglycoceramidase 2 V269I mutant
[8] = substrate: CCCCCCCCCCCCC/C=C/[C@@H](O)[C@@H](N)CO; assay: as §4
[9] = substrate: CC(=O)N[C@H]1[C@H](O[C@@H]2[C@H](O[C@]3(C(=O)O)C[C@H](O)[C@@H](NC(C)=O)[C@H]([C@@H](O)[C@@H](O)CO)O3)[C@@H](O)[C@H](O[C@H]3[C@H](O)[C@@H](O)[C@@H](F)O[C@@H]3CO)O[C@@H]2CO)O[C@H](CO)[C@H](O)[C@@H]1O[C@@H]1O[C@H](CO)[C@H](O)[C@H](O)[C@H]1O; assay: (§5) Ratio of Kcat to Km of Activity of Rhodococcus sp. M777 Endoglycoceramidase 2 V269I G370R mutant
[10] = substrate: CCCCCCCCCCCCC/C=C/[C@@H](O)[C@@H](N)CO; assay: as §5
[11] = substrate: CC(=O)N[C@H]1[C@H](O[C@@H]2[C@H](O[C@]3(C(=O)O)C[C@H](O)[C@@H](NC(C)=O)[C@H]([C@@H](O)[C@@H](O)CO)O3)[C@@H](O)[C@H](O[C@H]3[C@H](O)[C@@H](O)[C@@H](F)O[C@@H]3CO)O[C@@H]2CO)O[C@H](CO)[C@H](O)[C@@H]1O[C@@H]1O[C@H](CO)[C@H](O)[C@H](O)[C@H]1O; assay: (§6) Activity of Rhodococcus sp. M777 Endoglycoceramidase 2 V269I G370R mutant
[12] = substrate: CCCCCCCCCCCCC/C=C/[C@@H](O)[C@@H](N)CO; assay: as §6

B1: Endoglycoceramidase II (Rhodococcus sp), A0ACD6B832 T257I,T416A (protein)
chain: MRRTRLVSLIVTGSLVFGGGVAAAQSSLAASGSGSGSGTALTPSYLKDDDGRSLILRGFNTASSAKSAPDGMPQFTEADLAREYADMGTNFVRFLISWRSVEPAPGVYDQQYLDRVEDRVGWYAERGYKVMLDMHQDVYSGAITPEGNSGNGAGAIGNGAPAWATYMDGLPVEPQPRWELYYIQPGVMRAFDNFWNTTGKHPELVEHYAKAWRAVADRFADNDAVVAYDLMNEPFGGSLQGPAFEAGPLAAMYQRTIDAIRQVDQDTWVCVAPQAIGVNQGLPSGLTKIDDPRAGQQRIAYCPHLYPLPLDIGDGHEGLARTLTDVTIDAWRANTAHTARVLGDVPIILGEFGLDTTLPGARDYIERVYGTAREMGAGVSYWSSDPGPWGPYLPDGTQTLLVDTLNKPYPRAVAGAPTEWSSTSDRLQLTIEPDAAITAPTEIYLPEAGFPGDVHVEGADVVGWDRQSRLLTVRTPADSGNVTVTVTPAA
Work on B1 yielded a Km [1] of 370 µM, a kcat [1] of 0.11 s⁻¹ and a Km [2] of 870 µM. It also gave a kcat [2] of 0.18 s⁻¹, a kcat/Km [3] of 297 M⁻¹ s⁻¹ and a kcat/Km [4] of 206 M⁻¹ s⁻¹.

B2: Endoglycoceramidase II (Rhodococcus sp), A0ACD6B832 V269I (protein)
chain: MRRTRLVSLIVTGSLVFGGGVAAAQSSLAASGSGSGSGTALTPSYLKDDDGRSLILRGFNTASSAKSAPDGMPQFTEADLAREYADMGTNFVRFLISWRSVEPAPGVYDQQYLDRVEDRVGWYAERGYKVMLDMHQDVYSGAITPEGNSGNGAGAIGNGAPAWATYMDGLPVEPQPRWELYYIQPGVMRAFDNFWNTTGKHPELVEHYAKAWRAVADRFADNDAVVAYDLMNEPFGGSLQGPAFEAGPLAAMYQRTTDAIRQVDQDTWICVAPQAIGVNQGLPSGLTKIDDPRAGQQRIAYCPHLYPLPLDIGDGHEGLARTLTDVTIDAWRANTAHTARVLGDVPIILGEFGLDTTLPGARDYIERVYGTAREMGAGVSYWSSDPGPWGPYLPDGTQTLLVDTLNKPYPRAVAGTPTEWSSTSDRLQLTIEPDAAITAPTEIYLPEAGFPGDVHVEGADVVGWDRQSRLLTVRTPADSGNVTVTVTPAA
With B2 the kcat/Km [5] was 217 M⁻¹ s⁻¹, the kcat/Km [6] was 222 M⁻¹ s⁻¹ and the Km [7] was 600 µM. For the same protein, the kcat [7] was 0.13 s⁻¹, the Km [8] was 810 µM and the kcat [8] was 0.18 s⁻¹.

B3: Endoglycoceramidase II (Rhodococcus sp), A0ACD6B832 V269I,G370R (protein)
chain: MRRTRLVSLIVTGSLVFGGGVAAAQSSLAASGSGSGSGTALTPSYLKDDDGRSLILRGFNTASSAKSAPDGMPQFTEADLAREYADMGTNFVRFLISWRSVEPAPGVYDQQYLDRVEDRVGWYAERGYKVMLDMHQDVYSGAITPEGNSGNGAGAIGNGAPAWATYMDGLPVEPQPRWELYYIQPGVMRAFDNFWNTTGKHPELVEHYAKAWRAVADRFADNDAVVAYDLMNEPFGGSLQGPAFEAGPLAAMYQRTTDAIRQVDQDTWICVAPQAIGVNQGLPSGLTKIDDPRAGQQRIAYCPHLYPLPLDIGDGHEGLARTLTDVTIDAWRANTAHTARVLGDVPIILGEFGLDTTLPGARDYIERVYRTAREMGAGVSYWSSDPGPWGPYLPDGTQTLLVDTLNKPYPRAVAGTPTEWSSTSDRLQLTIEPDAAITAPTEIYLPEAGFPGDVHVEGADVVGWDRQSRLLTVRTPADSGNVTVTVTPAA
B3 gave a kcat/Km [9] of 191 M⁻¹ s⁻¹, a kcat/Km [10] of 542 M⁻¹ s⁻¹ and a Km [11] of 890 µM. It also gave a kcat [11] of 0.17 s⁻¹, a Km [12] of 480 µM and a kcat [12] of 0.26 s⁻¹.
